Results on one substance are retold here after paper PMC7098639.

Common to all, as to experiment: FRET or BRET; biosensor lysate at three concentrations (200,000, 400,000 and 800,000 RLU) incubated with VEGF ranges adjusted for each biosensor; Delta eBRET2 ratio against the biosensor without VEGF
(BRET reads energy transfer from a luciferase to a nearby fluorophore.)

Assay [1] has as its target eBRET2 VEGF biosensor Re02 (Rluc8 - VEGF receptor 1 domain 3 - GFP2) (human).
The target in assay [2] is eBRET2 VEGF biosensor Re06 (Rluc8 - VEGF receptor 2 domain 3 - GFP2) (human).
The target of assay [3] is eBRET2 VEGF biosensor Re07 (Rluc8 - VEGF receptor 2 domains 2 and 3 - GFP2) (human).
The target in assay [4] is eBRET2 VEGF biosensor Re09 (Rluc8 - VEGF receptor 1 domain 2 - VEGF receptor 2 domain 3 - GFP2) (human).

Chain of eBRET2 VEGF biosensor Re02 (Rluc8 - VEGF receptor 1 domain 3 - GFP2) (human) (P17948 27-758): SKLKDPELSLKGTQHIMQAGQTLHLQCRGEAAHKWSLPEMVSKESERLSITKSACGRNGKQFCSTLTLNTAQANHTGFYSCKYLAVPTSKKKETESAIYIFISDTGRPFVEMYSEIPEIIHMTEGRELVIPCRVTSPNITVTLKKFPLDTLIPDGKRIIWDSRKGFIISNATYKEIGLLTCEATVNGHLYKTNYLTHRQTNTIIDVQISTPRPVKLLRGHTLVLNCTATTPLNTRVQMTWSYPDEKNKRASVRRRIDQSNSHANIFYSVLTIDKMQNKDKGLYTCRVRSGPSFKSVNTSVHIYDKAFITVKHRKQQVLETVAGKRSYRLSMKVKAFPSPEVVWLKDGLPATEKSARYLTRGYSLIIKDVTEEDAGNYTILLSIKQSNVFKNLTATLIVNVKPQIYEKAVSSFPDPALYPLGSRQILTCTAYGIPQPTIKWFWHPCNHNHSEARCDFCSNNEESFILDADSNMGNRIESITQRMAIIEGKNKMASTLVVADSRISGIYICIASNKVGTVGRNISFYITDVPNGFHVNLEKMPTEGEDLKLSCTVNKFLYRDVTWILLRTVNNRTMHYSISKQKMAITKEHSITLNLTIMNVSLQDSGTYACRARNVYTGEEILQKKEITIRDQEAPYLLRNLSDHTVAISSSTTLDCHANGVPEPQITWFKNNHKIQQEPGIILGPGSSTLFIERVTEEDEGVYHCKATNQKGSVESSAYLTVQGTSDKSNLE
Chain of eBRET2 VEGF biosensor Re06 (Rluc8 - VEGF receptor 2 domain 3 - GFP2) (human) (P35968 20-764): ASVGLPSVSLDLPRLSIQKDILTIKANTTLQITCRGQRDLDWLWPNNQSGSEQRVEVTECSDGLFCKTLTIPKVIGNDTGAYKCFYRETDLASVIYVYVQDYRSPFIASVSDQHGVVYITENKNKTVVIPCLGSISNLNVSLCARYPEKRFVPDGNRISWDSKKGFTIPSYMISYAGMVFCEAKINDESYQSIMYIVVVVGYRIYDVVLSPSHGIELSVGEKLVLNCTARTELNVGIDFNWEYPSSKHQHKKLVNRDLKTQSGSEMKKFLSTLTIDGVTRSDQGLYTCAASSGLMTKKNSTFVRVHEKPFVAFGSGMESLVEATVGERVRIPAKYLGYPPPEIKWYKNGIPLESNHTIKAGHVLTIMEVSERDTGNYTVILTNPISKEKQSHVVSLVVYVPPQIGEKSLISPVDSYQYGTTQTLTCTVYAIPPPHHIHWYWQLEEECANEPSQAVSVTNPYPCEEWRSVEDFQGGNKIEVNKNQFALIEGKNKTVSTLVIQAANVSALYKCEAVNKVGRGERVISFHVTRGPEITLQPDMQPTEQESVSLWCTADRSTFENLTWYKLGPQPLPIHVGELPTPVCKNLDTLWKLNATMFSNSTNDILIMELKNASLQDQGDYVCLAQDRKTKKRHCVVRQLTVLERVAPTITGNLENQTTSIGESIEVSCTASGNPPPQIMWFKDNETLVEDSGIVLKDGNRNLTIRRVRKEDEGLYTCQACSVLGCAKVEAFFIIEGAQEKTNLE
Chain of eBRET2 VEGF biosensor Re07 (Rluc8 - VEGF receptor 2 domains 2 and 3 - GFP2) (human) (P35968 20-764): as above

For the substance “recombinant human VEGF (Active Max VEGF-A165) (ligand)”, in assay [1], the Delta eBRET2 ratio (ΔBR) at 0.1 ng/ml VEGF, biosensor at 200,000 RLU stood at 2.95 mBU and the Delta eBRET2 ratio (ΔBR) at 100 ng/ml VEGF, biosensor at 200,000 RLU came to 42.5 mBU. For the same substance, in assay [2], the Delta eBRET2 ratio (ΔBR) at 1000 pg/ml VEGF, biosensor at 200,000 RLU is 41 mBU and the maximum Delta eBRET2 ratio (ΔBR) at 1000 pg/ml VEGF, biosensor at 400,000 RLU amounted to 106 mBU. Moreover, the maximum Delta eBRET2 ratio (ΔBR) at 4 ng/ml VEGF, biosensor at 400,000 RLU in assay [3] was found to be 27.7 mBU. In assay [4], the maximum Delta eBRET2 ratio (ΔBR) at 1 μg/ml VEGF, biosensor at 200,000 RLU stood at 62.6 mBU and the maximum Delta eBRET2 ratio (ΔBR) at 1 μg/ml VEGF, biosensor at 800,000 RLU was found to be 100 mBU.
